# Laboratory results as given in article PMC10019796.
# pKd: −log10 of the molar value.
# Target: mtDsbC-SARS-CoV-2 RBD Alpha variant (B.1.1.7) fusion protein (SARS-CoV-2) (UniProt P0DTC2)
# Assay: BLI; biotinylated mtDsbC-RBD (20 µg/mL) immobilised on streptavidin (SA) biosensors, Fabs as analytes at three nanomolar concentrations; Octet RED384, 30 °C, 1000 rpm, 1 × PBS Kinetics Buffer; 1:1 interaction model, global fit
substance,measurement,value
REGN10987 (L93Q) Fab,pKd,< 6.00
